The supplement of paper PMC10126150
± gives the standard deviation of the averaged measurements.

Test system: ATP
Experiment: switch fluorescence ratio, 500 uM ATP over buffer (Cy3 cluster intensity, sum of 5 cycles each) (fold (ratio)); higher = stronger signal-on switching upon ATP binding; sequences stand for … in TCGTCGGCAGCGTCAGATGTGTATAAGAGACAGTTTTTTTTTTTTTTTTTTTTTTTTT…TC
Conditions: aptamer strand: ATP DNA aptamer (quencher-CACCTGGGGGAGTATTGCGGAGGAAGG + anchor), 100 nM annealed; ATP concentration: 500 uM
Procedure, shortened: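 The quencher-labelled ATP aptamer, at 100 nM, was annealed to Cy3-labelled switching-strand clusters on a modified Illumina MiSeq flow-cell. The clusters were imaged in selection buffer, then after 15 min with 500 uM ATP at 22 °C, and this buffer/ATP cycle ran five times with NaOH stripping and re-annealing between runs. Per-cluster fluorescence ratios, summed target-cycle over summed buffer-cycle Cy3 intensity, were averaged per switch-domain sequence. Clusters outside 100-1000 RFU were excluded.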
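Note: ATP exposure 15 min at 22 °C before imaging.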

| Sequence | switch fluorescence ratio |
| --- | --- |
| AGTGGGCGGG | 1.003 ± 0.0097 |
| AGTGGGCTAT | 0.999 ± 0.027 |
| AGTGGGGAGC | 0.978 ± 0.031 |
| AGTGGTATAG | 1.01 ± 0.034 |
| AGTGGTGCCG | 0.989 ± 0.02 |
| AGTGGTGGTT | 0.977 ± 0.057 |
| AGTGGTGTCT | 1.01 ± 0.033 |
| AGTGGTGTTT | 0.989 ± 0.016 |
| AGTGTAATGC | 1.15 ± 0.022 |
| AGTGTATAAA | 1.042 ± 0.0077 |
| AGTGTATTGA | 1 ± 0.036 |
| AGTGTCGTGG | 1 ± 0.046 |
| AGTGTCTCCT | 1.02 ± 0.058 |
| AGTGTGCAGG | 0.992 ± 0.017 |
| AGTGTGCGTG | 0.9812 ± 0.0076 |
| AGTGTGGGTA | 0.99 ± 0.021 |
| AGTGTGGGTT | 0.979 ± 0.0047 |
| AGTGTGTTAG | 0.987 ± 0.015 |
| AGTGTGTTTT | 0.996 ± 0.015 |
| AGTTAAAGAG | 1.01 ± 0.021 |
| AGTTACTTAG | 1.07 ± 0.038 |
| AGTTAGGAGT | 0.9895 ± 0.0087 |
| AGTTAGTGAA | 0.99 ± 0.022 |
| AGTTAGTTTG | 0.961 ± 0.022 |
| AGTTATACAC | 1.014 ± 0.0099 |

| Sequence | switch fluorescence ratio |
| --- | --- |
| AGTTATATTG | 0.997 ± 0.07 |
| AGTTATCGAC | 1.01 ± 0.021 |
| AGTTATCTTA | 1.02 ± 0.011 |
| AGTTATGAGT | 1.01 ± 0.054 |
| AGTTATGGGG | 1 ± 0.032 |
| AGTTATTTCG | 0.993 ± 0.018 |
| AGTTCAAGCT | 1.02 ± 0.007 |
| AGTTCAGGGC | 1.003 ± 0.004 |
| AGTTCCAAAA | 1.07 ± 0.1 |
| AGTTCCATTT | 0.97 ± 0.028 |
| AGTTCGCTAA | 1.012 ± 0.003 |
| AGTTCGGCTA | 0.998 ± 0.036 |
| AGTTCGGGAG | 0.99 ± 0.013 |
| AGTTCGGTGG | 0.962 ± 0.0022 |
| AGTTCGTAAA | 1.02 ± 0.029 |
| AGTTGAGAGA | 1.01 ± 0.018 |
| AGTTGAGTTT | 0.992 ± 0.026 |
| AGTTGCCAGC | 0.994 ± 0.01 |
| AGTTGCTTCG | 0.975 ± 0.026 |
| AGTTGGACGC | 1.07 ± 0.021 |
| AGTTGGGGCG | 1.01 ± 0.039 |
| AGTTGGGGGC | 1 ± 0.079 |
| AGTTGGGTTG | 1 ± 0.023 |
| AGTTGGTCCT | 1.01 ± 0.017 |
| AGTTGTACTA | 0.9633 ± 0.0046 |

| Sequence | switch fluorescence ratio |
| --- | --- |
| AGTTGTAGTT | 0.972 ± 0.041 |
| AGTTGTGTCG | 0.955 ± 0.02 |
| AGTTTAAGTG | 1.01 ± 0.013 |
| AGTTTAATTA | 0.971 ± 0.051 |
| AGTTTATAAT | 0.982 ± 0.023 |
| AGTTTATCAT | 0.9996 ± 0.0089 |
| AGTTTATTAC | 1.47 ± 0.68 |
| AGTTTCTACG | 0.994 ± 0.015 |
| AGTTTCTGTG | 0.968 ± 0.059 |
| AGTTTGAAAG | 1.01 ± 0.017 |
| AGTTTGCTCG | 0.971 ± 0.093 |
| AGTTTGGCAC | 1.05 ± 0.057 |
| AGTTTGGCAT | 0.9958 ± 0.0071 |
| AGTTTGGTTC | 0.9876 ± 0.0078 |
| AGTTTGTCTG | 0.9665 ± 0.007 |
| AGTTTTAGCT | 0.984 ± 0.029 |
| AGTTTTGAAA | 0.9909 ± 0.0021 |
| AGTTTTGCCT | 0.981 ± 0.032 |
| AGTTTTGGCA | 1.03 ± 0.015 |
| AGTTTTGTGC | 1.005 ± 0.0017 |
| AGTTTTGTTT | 1.01 ± 0.02 |
| AGTTTTTAGA | 1.03 ± 0.033 |
| AGTTTTTAGC | 1.01 ± 0.047 |
| AGTTTTTAGG | 0.99 ± 0.024 |
| AGTTTTTGGC | 0.999 ± 0.021 |

| Sequence | switch fluorescence ratio |
| --- | --- |
| AGTTTTTTAG | 0.98 ± 0.015 |
| ATAAAAGTCT | 1.03 ± 0.032 |
| ATAAACTAGA | 1.01 ± 0.019 |
| ATAAAGACGT | 1.02 ± 0.037 |
| ATAAAGAGGC | 0.978 ± 0.066 |
| ATAAAGTGGA | 0.984 ± 0.044 |
| ATAAAGTTGG | 0.991 ± 0.0075 |
| ATAAATGCGG | 1.02 ± 0.041 |
| ATAAATGTCA | 1.01 ± 0.026 |
| ATAAATTAGT | 0.998 ± 0.018 |
| ATAAATTTGT | 0.967 ± 0.019 |
| ATAACAGGTA | 1.009 ± 0.005 |
| ATAACATTAG | 0.9984 ± 0.0069 |
| ATAACGGGAT | 1.26 ± 0.42 |
| ATAACTGTAT | 1.122 ± 0.0049 |
| ATAACTTGGG | 0.994 ± 0.041 |
| ATAAGAAATA | 0.996 ± 0.027 |
| ATAAGAGGGT | 0.976 ± 0.049 |
| ATAAGATTGC | 0.991 ± 0.042 |
| ATAAGCCCGT | 0.976 ± 0.014 |
| ATAAGCGTCG | 1.02 ± 0.013 |
| ATAAGCTTGC | 1.128 ± 0.0064 |
| ATAAGGAAGT | 1.02 ± 0.028 |
| ATAAGGCCCG | 1.04 ± 0.078 |
| ATAAGGCGGG | 0.971 ± 0.031 |

| Sequence | switch fluorescence ratio |
| --- | --- |
| ATAAGGGAGG | 0.979 ± 0.022 |
| ATAAGGGCTA | 0.99 ± 0.031 |
| ATAAGGGGTA | 0.98 ± 0.019 |
| ATAAGGGTTT | 0.9905 ± 0.0095 |
| ATAAGGTACG | 1.05 ± 0.077 |
| ATAAGGTTGG | 0.988 ± 0.029 |
| ATAAGTATGT | 1 ± 0.018 |
| ATAAGTGAAA | 1.07 ± 0.15 |
| ATAAGTGAAT | 1.01 ± 0.013 |
| ATAAGTGTTG | 0.979 ± 0.017 |
| ATAAGTTTTT | 1 ± 0.023 |
| ATAATAGGGC | 1 ± 0.015 |
| ATAATCGGTG | 0.981 ± 0.041 |
| ATAATGGGCG | 0.995 ± 0.058 |
| ATAATGGGGA | 1 ± 0.018 |
| ATAATGGGGG | 0.977 ± 0.027 |
| ATAATGGTTT | 0.987 ± 0.056 |
| ATAATGTCGA | 1.02 ± 0.026 |
| ATAATTGAAG | 0.99 ± 0.027 |
| ATAATTGGTG | 1.03 ± 0.018 |
| ATAATTTCGG | 1.01 ± 0.026 |
| ATAATTTGAT | 0.983 ± 0.023 |
| ATACACGGCG | 1.045 ± 0.0087 |
| ATACAGCGA | 1.066 ± 0.01 |
| ATACAGGAAC | 1.03 ± 0.038 |

| Sequence | switch fluorescence ratio |
| --- | --- |
| ATACCATTTC | 1.03 ± 0.049 |
| ATACCCAAGC | 1.09 ± 0.011 |
| ATACCTAGCT | 1.05 ± 0.019 |
| ATACGAGATT | 1.009 ± 0.0079 |
| ATACGCAGGG | 1.06 ± 0.061 |
| ATACGCTGTT | 0.9875 ± 0.0082 |
| ATACGGCCCC | 1.2 ± 0.1 |
| ATACGTGGCA | 0.9601 ± 0.0037 |
| ATACTATATT | 1.05 ± 0.017 |
| ATACTATTAT | 1.03 ± 0.013 |
| ATACTGGGGT | 1.04 ± 0.056 |
| ATACTTACTT | 1.197 ± 0.011 |
| ATACTTTATT | 1.09 ± 0.034 |
| ATACTTTTTT | 1.01 ± 0.061 |
| ATAGAAGGTG | 1.43 ± 0.025 |
| ATAGAATGGT | 0.9829 ± 0.00046 |
| ATAGAATTGG | 1.02 ± 0.021 |
| ATAGACTTAT | 0.9765 ± 0.0093 |
| ATAGAGGAGG | 1 ± 0.021 |
| ATAGAGGCTG | 1.04 ± 0.064 |
| ATAGAGGGAT | 0.98 ± 0.026 |
| ATAGAGGGGG | 0.996 ± 0.03 |
| ATAGATCCTT | 0.9996 ± 0.0087 |
| ATAGATGAGT | 1.012 ± 0.0048 |
| ATAGATTGTT | 1.39 ± 0.59 |

| Sequence | switch fluorescence ratio |
| --- | --- |
| ATAGCACGTT | 1.03 ± 0.025 |
| ATAGCAGAAG | 1.06 ± 0.012 |
| ATAGCAGGCG | 1.01 ± 0.027 |
| ATAGCGCCGT | 1.01 ± 0.011 |
| ATAGCTTGTA | 0.995 ± 0.037 |
| ATAGCTTGTG | 0.996 ± 0.023 |
| ATAGGACATC | 1.03 ± 0.04 |
| ATAGGAGTAG | 0.993 ± 0.036 |
| ATAGGAGTCT | 1.09 ± 0.016 |
| ATAGGATGAG | 1.022 ± 0.0091 |
| ATAGGCACAT | 1.03 ± 0.029 |
| ATAGGCATCA | 1.18 ± 0.3 |
| ATAGGCGTCG | 0.967 ± 0.032 |
| ATAGGCTATA | 0.976 ± 0.025 |
| ATAGGGAGAG | 0.987 ± 0.016 |
| ATAGGGAGGC | 0.967 ± 0.035 |
| ATAGGGATTG | 0.996 ± 0.031 |
| ATAGGGCCGC | 1.02 ± 0.034 |
| ATAGGGCG | 0.987 ± 0.011 |
| ATAGGGGGGT | 1.02 ± 0.018 |
| ATAGGGTACA | 1.11 ± 0.052 |
| ATAGGTAGGG | 0.984 ± 0.0086 |
| ATAGGTATGC | 1 ± 0.06 |
| ATAGGTCAAC | 0.992 ± 0.044 |
| ATAGTACGCC | 1.28 ± 0.33 |

| Sequence | switch fluorescence ratio |
| --- | --- |
| ATAGTAGTAG | 0.998 ± 0.011 |
| ATAGTAGTGT | 0.998 ± 0.015 |
| ATAGTATAAG | 1.002 ± 0.0073 |
| ATAGTATATT | 0.982 ± 0.044 |
| ATAGTATGGG | 0.99 ± 0.046 |
| ATAGTCAGGG | 0.988 ± 0.036 |
| ATAGTCATAC | 1.25 ± 0.099 |
| ATAGTCTTTT | 1.02 ± 0.034 |
| ATAGTGATAT | 1.06 ± 0.11 |
| ATAGTGGTTT | 1.02 ± 0.021 |
| ATAGTGTGTT | 0.989 ± 0.021 |
| ATAGTTATGG | 0.992 ± 0.011 |
| ATAGTTGCGG | 1.047 ± 0.0011 |
| ATAGTTGGC | 1.04 ± 0.07 |
| ATAGTTGTGG | 0.977 ± 0.025 |
| ATAGTTGTTT | 1 ± 0.019 |
| ATATAAAAAG | 1.02 ± 0.061 |
| ATATAAGTGA | 0.9543 ± 0.0063 |
| ATATAATACG | 1.01 ± 0.024 |
| ATATACAGGG | 1.06 ± 0.024 |
| ATATACATGT | 1.02 ± 0.038 |
| ATATACTTCT | 1.02 ± 0.025 |
| ATATAGCACG | 1.02 ± 0.033 |
| ATATAGGTGG | 0.999 ± 0.026 |
| ATATATAGTT | 1.043 ± 0.01 |
